# Results published in US20200024330A1 (published 2020).
# Numbering of substitutions follows the chain as printed.
# B1: 1495_C14 (PGC14) (antibody, human IgG1, lambda, V domains shown)
# VH: DGHLVQSGVEVKKTGATVKISCKVSGYSFIDYYLHWVQRAPGKGLEWVGLIDPENGEARYAEKFQGRVTIIADTSIDTGYMEMRSLKSEDTAVYFCAAGAVGADSGSWFDPWGQGTLVTVSS
# VL: SYELTQPPSVSVSPGQTASITCSGSKLGDKYVSWYQLRPGQSPILVMYENDRRPSGIPERFSGSNSGDTATLTISGTQALDEADFYCQAWETTTTTFVFFGGGTQLTVLG
# B2: 1495_C14 (PGC14) (antibody, V domains shown)
# VH: B1 VH
# VL: SYELTQPPSVSVSPGQTASITCSGSKLGDKYVSWYQLRPGQSPILVMYENDRRPSGIPERFSGSNSGDTATLTISGTQALDEADFYCQAWETTTTTFVFFGGGTQLTVL
# notes: also called B cell culture plate 1495 well C14
# B3: 1443_C16 (PG16) (TCN-116) (antibody, V domains shown)
# VH: QEQLVESGGGVVQPGGSLRLSCLASGFTFHKYGMHWVRQAPGKGLEWVALISDDGMRKYHSDSMWGRVTISRDNSKNTLYLQFSSLKVEDTAMFFCAREAGGPIWHDDVKYYDFNDGYYNYHYMDVWGKGTTVTVSS
# VL: QSALTQPASVSGSPGQTITISCNGTSSDVGGFDSVSWYQQSPGKAPKVMVFDVSHRPSGISNRFSGSKSGNTASLTISGLHIEDEGDYFCSSLTDRSHRIFGGGTKVTVLG
# B4: 1456_P20 (PG20) (antibody, human IgG1, kappa, V domains shown)
# VH: QVRLVQSGPEVKKPGSSVTVSCQASGGTFSSYAFTWVRQAPGQGLEWLGMVTPIFGEAKYSQRFEGRVTITADESTSTTSIELRGLTSEDTAIYYCARDRRAVPIATDNWLDPWGQGTLVTVSS
# VL: DIQLTQSPSSLSASVGDRVSITCRASQTINNYLNWYQQTPGKAPKLLIYGASNLQNGVPSRFSGSGSGTDFTLTISSLQPEDFATYYCQQSFSTPRTFGQGTRLDIKR
# B5: 1456_P20 (PG20) (antibody, V domains shown)
# VH: B4 VH
# VL: DIQLTQSPSSLSASVGDRVSITCRASQTINNYLNWYQQTPGKAPKLLIYGASNLQNGVPSRFSGSGSGTDFTLTISSLQPEDFATYYCQQSFSTPRTFGQGTRLDIK
# notes: also called B cell culture plate 1456 well P20
# B6: 1460_G14 (PGG14) (antibody, V domains shown)
# VH: QVLLVQSGTEVKKPGSSVKVSCQASGGAFSSYAFSWVRQAPGQGLEWMGMITPVFGETKYAPRFQGRLTLTAEESLSTTYMELRSLTSDDTAFYYCTRDRRVVPMATDNWLDPWGQGTLVTVSS
# VL: B4 VL with S20T, I21V, N30H, N31T, T39I, N53T, N56S, S76N, F92Y
# B7: 1460_G14 (PGG14) (antibody, human IgG1, kappa, V domains shown)
# VH: B6 VH
# VL: B4 VL with S20T, I21V, N30H, N31T, T39I, N53T, N56S, S76N, F92Y
# B8: 1496_C09 (PG9) (TCN-109) (antibody, V domains shown)
# VH: QRLVESGGGVVQPGSSLRLSCAASGFDFSRQGMHWVRQAPGQGLEWVAFIKYDGSEKYHADSVWGRLSISRDNSKDTLYLQMNSLRVEDTATYFCVREAGGPDYRNGYNYYDFYDGYYNYHYMDVWGKGTTVTVSS
# VL: QSALTQPASVSGSPGQSITISCNGTSNDVGGYESVSWYQQHPGKAPKVVIYDVSKRPSGVSNRFSGSKSGNTASLTISGLQAEDEGDYYCKSLTSTRRRVFGTGTKLTVLG
# B9: 1460_G14 (PGG14) (antibody, V domains shown)
# VH: B6 VH
# VL: B5 VL with S20T, I21V, N30H, N31T, T39I, N53T, N56S, S76N, F92Y
# notes: also called B cell culture plate 1460 well G14
# What was measured:
# [1] = target: HIV-1 93UG077 envelope protein (Env) on pseudovirus (HIV-1 isolate 93UG077); test: cell-based or functional assay
# [2] = target: HIV-1 92BR020 envelope protein (Env) on pseudovirus (HIV-1 isolate 92BR020); test: cell-based or functional assay
# [3] = target: HIV-1 APV-13 envelope protein (Env) on pseudovirus (HIV-1 isolate APV-13); test: cell-based or functional assay
# [4] = target: HIV-1 APV-17 envelope protein (Env) on pseudovirus (HIV-1 isolate APV-17); test: cell-based or functional assay
# [5] = target: HIV-1 APV-6 envelope protein (Env) on pseudovirus (HIV-1 isolate APV-6); test: cell-based or functional assay
# [6] = target: HIV-1 93IN905 envelope protein (Env) on pseudovirus (HIV-1 isolate 93IN905); test: cell-based or functional assay
# [7] = target: HIV-1 IAVI-C18 envelope protein (Env) on pseudovirus (HIV-1 isolate IAVI-C18); test: cell-based or functional assay
# [8] = target: HIV-1 IAVI-C22 envelope protein (Env) on pseudovirus (HIV-1 isolate IAVI-C22); test: cell-based or functional assay
# [9] = target: HIV-1 IAVI-C3 envelope protein (Env) on pseudovirus (HIV-1 isolate IAVI-C3); test: cell-based or functional assay
# [10] = target: HIV-1 92UG024 envelope protein (Env) on pseudovirus (HIV-1 isolate 92UG024); test: cell-based or functional assay
# [11] = target: HIV-1 92UG005 envelope protein (Env) on pseudovirus (HIV-1 isolate 92UG005); test: cell-based or functional assay
# [12] = target: HIV-1 92TH021 envelope protein (Env) on pseudovirus (HIV-1 isolate 92TH021); test: cell-based or functional assay
# [13] = target: HIV-1 CMU02 envelope protein (Env) on pseudovirus (HIV-1 isolate CMU02); test: cell-based or functional assay
# [14] = target: aMLV envelope protein on pseudovirus (negative control) (aMLV); test: cell-based or functional assay
# [15] = target: HIV-1 94UG103 envelope protein (Env) on pseudovirus (HIV-1 isolate 94UG103); test: cell-based or functional assay
# [16] = target: HIV-1 92RW020 envelope protein (Env) on pseudovirus (HIV-1 isolate 92RW020); test: cell-based or functional assay
# [17] = target: T1, recombinant monomeric gp120 of HIV-1 isolate JR-CSF (HIV-1 isolate JR-CSF, UniProt P20871 32-503); test: anti-gp120 ELISA, B cell culture supernatant on captured gp120
# T1 construct: domain: gp120
# [18] = target: aMLV envelope protein on pseudotyped virus (negative control) (aMLV); test: cell-based or functional assay
Binder,"IC50 (µg/mL), pseudovirus neutralization [1]","IC50 (µg/mL), pseudovirus neutralization [2]","IC50 (µg/mL), pseudovirus neutralization [3]","IC50 (µg/mL), pseudovirus neutralization [4]","IC50 (µg/mL), pseudovirus neutralization [5]","IC50 (µg/mL), pseudovirus neutralization [6]","IC50 (µg/mL), pseudovirus neutralization [7]","IC50 (µg/mL), pseudovirus neutralization [8]","IC50 (µg/mL), pseudovirus neutralization [9]","IC50 (µg/mL), pseudovirus neutralization [10]","IC50 (µg/mL), pseudovirus neutralization [11]","IC50 (µg/mL), pseudovirus neutralization [12]","IC50 (µg/mL), pseudovirus neutralization [13]","IC50 (µg/mL), pseudovirus neutralization [14]","IC50 (µg/mL), pseudovirus neutralization [15]","IC50 (µg/mL), pseudovirus neutralization [16]",ELISA OD [17],"IC50, pseudovirus neutralization, 1 hour Virus/Ab Incubation [18]","IC50, pseudovirus neutralization, 18 hour Virus/Ab Incubation [18]"
B1,> 50 µg/mL,0.64 µg/mL,> 50 µg/mL,> 50 µg/mL,7.41 µg/mL,> 50 µg/mL,> 50 µg/mL,> 50 µg/mL,9.5 µg/mL,> 50 µg/mL,> 50 µg/mL,> 50 µg/mL,> 50 µg/mL,> 50 µg/mL,> 50 µg/mL,28.6 µg/mL,,,
B2,,,,,,,,,,,,,,,,,3.76 OD,,
B3,> 50 µg/mL,> 50 µg/mL,> 50 µg/mL,> 50 µg/mL,0.08 µg/mL,0.1 µg/mL,0.007 µg/mL,0.069 µg/mL,14.8 µg/mL,> 50 µg/mL,> 50 µg/mL,0.13 µg/mL,> 50 µg/mL,> 50 µg/mL,0.008 µg/mL,0.004 µg/mL,,,
B4,> 50 µg/mL,> 50 µg/mL,> 50 µg/mL,> 50 µg/mL,25.8 µg/mL,> 50 µg/mL,> 50 µg/mL,> 50 µg/mL,> 50 µg/mL,> 50 µg/mL,> 50 µg/mL,> 50 µg/mL,> 50 µg/mL,> 50 µg/mL,> 50 µg/mL,50 µg/mL,,,
B5,,,,,,,,,,,,,,,,,3.78 OD,,
B6,,,,,,,,,,,,,,,,,,> 50 µg/mL,> 50 µg/mL
B7,> 50 µg/mL,> 50 µg/mL,> 50 µg/mL,> 50 µg/mL,> 50 µg/mL,> 50 µg/mL,> 50 µg/mL,> 50 µg/mL,> 50 µg/mL,> 50 µg/mL,> 50 µg/mL,> 50 µg/mL,> 50 µg/mL,> 50 µg/mL,> 50 µg/mL,> 50 µg/mL,,,
B8,> 50 µg/mL,> 50 µg/mL,> 50 µg/mL,26.4 µg/mL,0.09 µg/mL,,0.05 µg/mL,,12.9 µg/mL,,> 50 µg/mL,,> 50 µg/mL,> 50 µg/mL,0.17 µg/mL,0.06 µg/mL,,,
B9,,,,,,,,,,,,,,,,,3.49 OD,,
